For 68 sequences, protein stability index results are on record in the supplement of paper PMC10724198.

± gives the standard deviation of the averaged measurements.

For the data set, the system named is Saccharomyces cerevisiae. Nature of the data set: protein stability index of tFT-peptide fusion (C-terminal peptide) (PSI (0-1 scale)); higher = more stable (slower turnover). To be noted: temperature: 30 C. As to the method: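 MPS profiling in S. cerevisiae of the yeast C-terminome library: the last 12 aa of each annotated ORF are fused to the C-terminus of a sfGFP-mCherry timer, after a GGGS linker. Cells are FACS-sorted into 8 mCherry/sfGFP bins and deep-sequenced. PSI runs from 0 (unstable) to 1 (stable); wild type and das1Δ backgrounds, two technical replicates each.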

Where [1] appears, read: genetic background: das1 deletion.

For QCNFSYLESNYF [CTS1 C-terminal 12 aa], the protein stability index by setting is: under setting [1], 0.689 ± 0.019; (genetic background: wild type) 0.749 ± 0.06.
For QFDSENVILSVI [TRS120 C-terminal 12 aa], in that order: 0.716 ± 0.023 and 0.687 ± 0.024.
For QHDEKPFYKRMF [HXT8 C-terminal 12 aa] the same measures were 0.723 ± 0.026 and 0.666 ± 0.045.
For QHLKTHKKHGDF [MSN4 C-terminal 12 aa] the same measures were 0.719 ± 0.0085 and 0.6983 ± 0.001.
QIILQKEGVLDK [KCC4 C-terminal 12 aa]: the protein stability index reads like this: under setting [1], 0.704 ± 0.0035; (genetic background: wild type) 0.672 ± 0.0083.
In the case of QKNKKRKFSDTS [RNT1 C-terminal 12 aa], the protein stability index runs as follows: under setting [1], 0.696 ± 0.019; (genetic background: wild type) 0.701 ± 0.018.
For QLNLVVNGVRLN [YLR379W C-terminal 12 aa] the same measures were 0.674 ± 0.021 and 0.655 ± 0.016.
The sequence QMICPSLLGIRN [YHR130C C-terminal 12 aa] registered a protein stability index under setting [1] of 0.721 ± 0.013 and a protein stability index (genetic background: wild type) of 0.6986 ± 0.0069.
For QMRKNMTRTDEK [PKH1 C-terminal 12 aa] the same measures were 0.671 ± 0.056 and 0.714 ± 0.026.
For QNNNILNDMRVN [SPT23 C-terminal 12 aa], in that order: 0.669 ± 0.011 and 0.689 ± 0.039.
For QQQQQKKESSTA [GIM5 C-terminal 12 aa], in that order: 0.727 ± 0.0087 and 0.7 ± 0.037.
With QRASSRPKERRK [MSB4 C-terminal 12 aa], the protein stability index reads like this: under setting [1], 0.711 ± 0.019; (genetic background: wild type) 0.713 ± 0.016.
For QRERINNYISVY [VMA6 C-terminal 12 aa] the same measures were 0.352 ± 0.02 and 0.388 ± 0.0092.
For QRSKSKRQKRRK [YNG1 C-terminal 12 aa], in that order: 0.705 ± 0.017 and 0.652 ± 0.036.
For QRTRRRMSLYKL [TOS3 C-terminal 12 aa] the same measures were 0.807 ± 0.036 and 0.853 ± 0.03.
Take QRVIKPSSALQF [ECM7 C-terminal 12 aa]: the protein stability index is 0.706 ± 0.01 under setting [1] and 0.682 ± 0.035 (genetic background: wild type).
For QSARRQRGSIAM [SDS24 C-terminal 12 aa], in that order: 0.683 ± 0.02 and 0.6657 ± 0.0037.
For QSLKISKKRRRK [ZIP1 C-terminal 12 aa], in that order: 0.734 ± 0.033 and 0.748 ± 0.086.
QSMLDGNSPESV [DCR2 C-terminal 12 aa]: the protein stability index runs as follows: under setting [1], 0.6985 ± 0.0053; (genetic background: wild type) 0.693 ± 0.021.
For QTILKNKKKISQ [GYP6 C-terminal 12 aa] the same measures were 0.701 ± 0.049 and 0.6842 ± 0.0023.
For QTVRKLDMDFEV [REV1 C-terminal 12 aa], in that order: 0.735 ± 0.032 and 0.656 ± 0.03.
For QVYYELGQIPFE [MET18 C-terminal 12 aa] the same measures were 0.738 ± 0.0075 and 0.71 ± 0.011.
For QYMTSGYASNWN [YAR061W C-terminal 12 aa], the protein stability index runs as follows: under setting [1], 0.715 ± 0.11; (genetic background: wild type) 0.754 ± 0.096.
For QYQHQHQQDPRT [NAF1 C-terminal 12 aa] the same measures were 0.701 ± 0.014 and 0.728 ± 0.049.
Turning to RATLNSVNSFLM [RIT1 C-terminal 12 aa], the protein stability index is, setting by setting: under setting [1], 0.681 ± 0.013; (genetic background: wild type) 0.673 ± 0.023.
For RAVSGVELRIYV [POP7 C-terminal 12 aa], in that order: 0.644 ± 0.012 and 0.641 ± 0.017.
Take “RAVTNRSSCSRR [YCR038W-A C-terminal 12 aa]”: the protein stability index stood at 0.697 ± 0.011 under setting [1] and 0.689 ± 0.0074 (genetic background: wild type).
For RDAEILAKIAKD [HSP10 C-terminal 12 aa], in that order: 0.683 ± 0.021 and 0.677 ± 0.0077.
For RDMVELMKFYEL [HOS1 C-terminal 12 aa] the same measures were 0.715 ± 0.0096 and 0.6886 ± 0.0047.
For RDVLDDGSNIMS [IAH1 C-terminal 12 aa] the same measures were 0.6824 ± 0.0049 and 0.7 ± 0.0082.
For the sequence REITKCKQIFHK [PTR3 C-terminal 12 aa], the protein stability index is 0.691 ± 0.02 under setting [1] and 0.686 ± 0.028 (genetic background: wild type).
For REWFDIELNFSK [PMT4 C-terminal 12 aa] the same measures were 0.7467 ± 0.0068 and 0.73 ± 0.024.
For RGENGQFWIGTK [BNI5 C-terminal 12 aa], in that order: 0.744 ± 0.027 and 0.702 ± 0.03.
As to RGIAAIRESLSN [YIR042C C-terminal 12 aa], the protein stability index reads like this: under setting [1], 0.6681 ± 0.006; (genetic background: wild type) 0.697 ± 0.02.
For RHELQALQAEIN [END3 C-terminal 12 aa], in that order: 0.715 ± 0.018 and 0.614 ± 0.018.
For RHRKSEDRSLEA [ATR2 C-terminal 12 aa] the same measures were 0.706 ± 0.029 and 0.703 ± 0.062.
For RIAAGDGDDDDE [QCR9 C-terminal 12 aa] the same measures were 0.7068 ± 0.0027 and 0.674 ± 0.041.
Take RIEQNRPDDGVY [FMP16 C-terminal 12 aa]: the protein stability index turned out to be 0.682 ± 0.068 under setting [1] and 0.65 ± 0.017 (genetic background: wild type).
For RIYHVYGRFLIH [NCA2 C-terminal 12 aa], in that order: 0.671 ± 0.027 and 0.404 ± 0.027.
For “RKCRVYVIQDAF [YER084W-A C-terminal 12 aa]” the same measures were 0.6849 ± 0.0056 and 0.67829 ± 0.00013.
For RKFHVVDTSLFA [MOG1 C-terminal 12 aa], in that order: 0.688 ± 0.01 and 0.688 ± 0.05.
Consider RKSKKDTDSDSD [BMT5 C-terminal 12 aa], for which the protein stability index is, setting by setting: under setting [1], 0.7 ± 0.023; (genetic background: wild type) 0.695 ± 0.055.
Consider RKTIRRDLASLV [TMA108 C-terminal 12 aa], for which the protein stability index was 0.691 ± 0.01 under setting [1] and 0.571 ± 0.031 (genetic background: wild type).
For RLEKEAKIKQEE [CDC11 C-terminal 12 aa] the same measures were 0.6967 ± 0.0039 and 0.678 ± 0.032.
For RLGLDWQPDSVS [MTH1 C-terminal 12 aa], in that order: 0.695 ± 0.01 and 0.686 ± 0.039.
For “RLLGPCFKTGGI [YLR154W-B C-terminal 12 aa]” the same measures were 0.696 ± 0.0085 and 0.675 ± 0.043.
As to RLNKLEAVLQTL [PML39 C-terminal 12 aa], the protein stability index runs as follows: under setting [1], 0.685 ± 0.033; (genetic background: wild type) 0.72 ± 0.011.
For RLSMLRPPSSSS [RSC2 C-terminal 12 aa] the same measures were 0.7185 ± 0.0066 and 0.7059 ± 0.0021.
As for RMHRRLPFPTLN [YJR142W C-terminal 12 aa], the protein stability index runs as follows: under setting [1], 0.699 ± 0.025; (genetic background: wild type) 0.548 ± 0.013.
On to “RNNEHSHKKYNQ [YER090C-A C-terminal 12 aa]”, for which the protein stability index reads like this: under setting [1], 0.711 ± 0.0081; (genetic background: wild type) 0.729 ± 0.092.
Sequence RRAAIHPYFQES [CDC28 C-terminal 12 aa] displayed a protein stability index under setting [1] of 0.729 ± 0.013 and a protein stability index (genetic background: wild type) of 0.687 ± 0.015.
For “RRHFSERRLENK [YPR074W-A C-terminal 12 aa]”, in that order: 0.684 ± 0.022 and 0.73 ± 0.025.
Take RRPSSTSQYLIR [CDC20 C-terminal 12 aa]: the protein stability index came to 0.692 ± 0.01 under setting [1] and 0.679 ± 0.038 (genetic background: wild type).
Take RSNEEMYSWSRN [SPO74 C-terminal 12 aa]: the protein stability index is, setting by setting: under setting [1], 0.698 ± 0.039; (genetic background: wild type) 0.692 ± 0.0082.
RTQGEGQGSMFR [TAF11 C-terminal 12 aa]: the protein stability index by setting is: under setting [1], 0.7233 ± 0.0027; (genetic background: wild type) 0.6719 ± 0.0047.
Regarding RTRPPTAVAHIA [DUG3 C-terminal 12 aa], the protein stability index is 0.6938 ± 0.0057 under setting [1] and 0.337 ± 0.0086 (genetic background: wild type).
For RTTFRTLSSYGK [YHL041W C-terminal 12 aa] the same measures were 0.713 ± 0.0099 and 0.648 ± 0.037.
For RTTGHNLKQDFN [BUD4 C-terminal 12 aa], in that order: 0.696 ± 0.022 and 0.653 ± 0.017.
For RVVDLVEHVAKA [TDH2 C-terminal 12 aa] the same measures were 0.705 ± 0.026 and 0.6748 ± 0.0044.
RVYTEQNVPVVS [YNL194C C-terminal 12 aa] yielded a protein stability index under setting [1] of 0.6679 ± 0.0046 and a protein stability index (genetic background: wild type) of 0.684 ± 0.039.
Regarding RWELVRESWREL [HSV2 C-terminal 12 aa], the protein stability index was 0.703 ± 0.03 under setting [1] and 0.786 ± 0.086 (genetic background: wild type).
In the case of RYENFINMARHK [YOR097C C-terminal 12 aa], the protein stability index under setting [1] worked out at 0.816 ± 0.054.
As to SAIADDDEEHKE [LHP1 C-terminal 12 aa], the protein stability index runs as follows: under setting [1], 0.7103 ± 0.0044; (genetic background: wild type) 0.678 ± 0.051.
For SAIEEGISLNKG [TEL2 C-terminal 12 aa], in that order: 0.7058 ± 0.0048 and 0.701 ± 0.012.
For SAQRDRRYRKRN [RPS17B C-terminal 12 aa], in that order: 0.721 ± 0.049 and 0.649 ± 0.018.
For SATFTSDHIGHI [RIM21 C-terminal 12 aa] the same measures were 0.7167 ± 0.0052 and 0.685 ± 0.042.
As for SDEFVDASEYKD [UTP9 C-terminal 12 aa], the protein stability index reads like this: under setting [1], 0.7 ± 0.044; (genetic background: wild type) 0.6722 ± 0.0063.
With SDELSRNFDSQG [VPS3 C-terminal 12 aa], the protein stability index runs as follows: under setting [1], 0.705 ± 0.017; (genetic background: wild type) 0.726 ± 0.015.
